{"source": "patent US20250163162A1", "molecular_target": "T1, IL10Rα/IL2Rγ receptor (human) (UniProt Q13651)", "T1 sequence (looked up) 1": "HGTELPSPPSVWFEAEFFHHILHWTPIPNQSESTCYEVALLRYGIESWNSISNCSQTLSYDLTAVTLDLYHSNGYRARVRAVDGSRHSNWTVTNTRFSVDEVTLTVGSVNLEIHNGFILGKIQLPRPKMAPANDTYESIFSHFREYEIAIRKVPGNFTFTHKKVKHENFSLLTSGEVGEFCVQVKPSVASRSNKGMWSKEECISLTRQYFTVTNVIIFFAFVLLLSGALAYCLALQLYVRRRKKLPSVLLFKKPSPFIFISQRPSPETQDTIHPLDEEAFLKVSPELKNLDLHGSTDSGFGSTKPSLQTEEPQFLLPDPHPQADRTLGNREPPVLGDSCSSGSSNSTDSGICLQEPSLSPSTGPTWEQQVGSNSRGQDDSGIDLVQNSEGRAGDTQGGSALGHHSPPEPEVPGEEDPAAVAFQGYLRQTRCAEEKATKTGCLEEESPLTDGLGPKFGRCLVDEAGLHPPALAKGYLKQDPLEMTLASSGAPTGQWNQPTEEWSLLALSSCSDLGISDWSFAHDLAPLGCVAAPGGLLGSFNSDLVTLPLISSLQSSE", "T1 sequence (looked up) 2": "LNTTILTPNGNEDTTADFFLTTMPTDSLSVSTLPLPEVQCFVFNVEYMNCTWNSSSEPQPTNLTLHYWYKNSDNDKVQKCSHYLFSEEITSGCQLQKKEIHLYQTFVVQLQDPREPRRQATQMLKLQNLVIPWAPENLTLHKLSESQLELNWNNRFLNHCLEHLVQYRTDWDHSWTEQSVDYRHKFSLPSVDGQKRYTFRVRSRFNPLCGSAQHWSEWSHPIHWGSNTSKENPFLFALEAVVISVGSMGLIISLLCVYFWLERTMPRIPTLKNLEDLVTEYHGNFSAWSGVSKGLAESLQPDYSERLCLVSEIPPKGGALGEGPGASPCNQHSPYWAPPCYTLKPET", "assay": "cell-based or functional assay", "data": [{"binder": "hIL10Ra_VHH14 - hIL2Rg_VHH19, linker GGGSGGGS, tag his (bispecific antibody, not shown: small tags and cut ends) QVQLQESGGGSVQAGGSLRLSCGASGYTYSSYCMGWFRQVPGKEREGVAVIDSDGSTSYADSVKGRFTISKDNGKNTLYLQMNSLKPEDTAMYYCAADLGHYRPPCGVLYLGMDYWGKGTQVTVSSGGGSGGGSQVQLQESGGGSVQAGGSLRLSCTASGFTFDDREMNWYRQAPGNECELVSTISSDGSTYYADSVKGRFTISQDNAKNTVYLQMDSVKPEDTAVYYCAADFMIAIQAPGAGCWGQGTQVTVSS", "values": [{"measurement": "Granzyme A secretion, CD8 T cells, at 0 µM", "result": 25200, "unit": "pg/mL"}, {"measurement": "Granzyme A secretion, CD8 T cells, at 0.0001 µM", "result": 19700, "unit": "pg/mL"}, {"measurement": "Granzyme A secretion, CD8 T cells, at 0.001 µM", "result": 22300, "unit": "pg/mL"}, {"measurement": "Granzyme A secretion, CD8 T cells, at 0.01 µM", "result": 22700, "unit": "pg/mL"}, {"measurement": "Granzyme A secretion, CD8 T cells, at 0.1 µM", "result": 26000, "unit": "pg/mL"}, {"measurement": "Granzyme A secretion, CD8 T cells, at 1 µM", "result": 30100, "unit": "pg/mL"}, {"measurement": "Granzyme A secretion, CD8 T cells, at 10 µM", "result": 29300, "unit": "pg/mL"}, {"measurement": "Granzyme A secretion, CD8 T cells, at 100 µM", "result": 24800, "unit": "pg/mL"}, {"measurement": "Granzyme B secretion, CD8 T cells, at 0 µM", "result": 77700, "unit": "pg/mL"}, {"measurement": "Granzyme B secretion, CD8 T cells, at 0.0001 µM", "result": 52600, "unit": "pg/mL"}, {"measurement": "Granzyme B secretion, CD8 T cells, at 0.001 µM", "result": 45500, "unit": "pg/mL"}, {"measurement": "Granzyme B secretion, CD8 T cells, at 0.01 µM", "result": 47300, "unit": "pg/mL"}, {"measurement": "Granzyme B secretion, CD8 T cells, at 0.1 µM", "result": 62200, "unit": "pg/mL"}, {"measurement": "Granzyme B secretion, CD8 T cells, at 1 µM", "result": 80500, "unit": "pg/mL"}, {"measurement": "Granzyme B secretion, CD8 T cells, at 10 µM", "result": 83500, "unit": "pg/mL"}, {"measurement": "Granzyme B secretion, CD8 T cells, at 100 µM", "result": 78100, "unit": "pg/mL"}, {"measurement": "IFNγ secretion, CD8 T cells, at 0 µM", "result": 122000, "unit": "pg/mL"}, {"measurement": "IFNγ secretion, CD8 T cells, at 0.0001 µM", "result": 95500, "unit": "pg/mL"}, {"measurement": "IFNγ secretion, CD8 T cells, at 0.001 µM", "result": 108000, "unit": "pg/mL"}, {"measurement": "IFNγ secretion, CD8 T cells, at 0.01 µM", "result": 102000, "unit": "pg/mL"}, {"measurement": "IFNγ secretion, CD8 T cells, at 0.1 µM", "result": 122000, "unit": "pg/mL"}, {"measurement": "IFNγ secretion, CD8 T cells, at 1 µM", "result": 142000, "unit": "pg/mL"}, {"measurement": "IFNγ secretion, CD8 T cells, at 10 µM", "result": 143000, "unit": "pg/mL"}, {"measurement": "IFNγ secretion, CD8 T cells, at 100 µM", "result": 120000, "unit": "pg/mL"}, {"measurement": "IL-1β secretion, LPS treated monocytes, at 0 µM", "result": 6240, "unit": "pg/mL"}, {"measurement": "IL-1β secretion, LPS treated monocytes, at 0 µM (LPS only)", "result": 6880, "unit": "pg/mL"}, {"measurement": "IL-1β secretion, LPS treated monocytes, at 0.0001 µM", "result": 5950, "unit": "pg/mL"}, {"measurement": "IL-1β secretion, LPS treated monocytes, at 0.001 µM", "result": 6200, "unit": "pg/mL"}, {"measurement": "IL-1β secretion, LPS treated monocytes, at 0.01 µM", "result": 4960, "unit": "pg/mL"}, {"measurement": "IL-1β secretion, LPS treated monocytes, at 0.1 µM", "result": 5590, "unit": "pg/mL"}, {"measurement": "IL-1β secretion, LPS treated monocytes, at 1 µM", "result": 5670, "unit": "pg/mL"}, {"measurement": "IL-1β secretion, LPS treated monocytes, at 10 µM", "result": 6020, "unit": "pg/mL"}, {"measurement": "IL-1β secretion, LPS treated monocytes, at 100 µM", "result": 6840, "unit": "pg/mL"}, {"measurement": "IL-9 secretion, CD8 T cells, at 0 µM", "result": 1350, "unit": "pg/mL"}, {"measurement": "IL-9 secretion, CD8 T cells, at 0.0001 µM", "result": 988, "unit": "pg/mL"}, {"measurement": "IL-9 secretion, CD8 T cells, at 0.001 µM", "result": 1050, "unit": "pg/mL"}, {"measurement": "IL-9 secretion, CD8 T cells, at 0.01 µM", "result": 1010, "unit": "pg/mL"}, {"measurement": "IL-9 secretion, CD8 T cells, at 0.1 µM", "result": 1300, "unit": "pg/mL"}, {"measurement": "IL-9 secretion, CD8 T cells, at 1 µM", "result": 1380, "unit": "pg/mL"}, {"measurement": "IL-9 secretion, CD8 T cells, at 10 µM", "result": 1880, "unit": "pg/mL"}, {"measurement": "IL-9 secretion, CD8 T cells, at 100 µM", "result": 1700, "unit": "pg/mL"}]}, {"binder": "hIL10Ra_VHH14 - hIL2Rg_VHH19, linker …, tag his (bispecific antibody, not shown: small tags and cut ends) QVQLQESGGGSVQAGGSLRLSCGASGYTYSSYCMGWFRQVPGKEREGVAVIDSDGSTSYADSVKGRFTISKDNGKNTLYLQMNSLKPEDTAMYYCAADLGHYRPPCGVLYLGMDYWGKGTQVTVSSGGSGGSGGSGQVQLQESGGGSVQAGGSLRLSCTASGFTFDDREMNWYRQAPGNECELVSTISSDGSTYYADSVKGRFTISQDNAKNTVYLQMDSVKPEDTAVYYCAADFMIAIQAPGAGCWGQGTQVTVSS", "values": [{"measurement": "Granzyme A secretion, CD8 T cells, at 0 µM", "result": 25200, "unit": "pg/mL"}, {"measurement": "Granzyme A secretion, CD8 T cells, at 0.0001 µM", "result": 20600, "unit": "pg/mL"}, {"measurement": "Granzyme A secretion, CD8 T cells, at 0.001 µM", "result": 25200, "unit": "pg/mL"}, {"measurement": "Granzyme A secretion, CD8 T cells, at 0.01 µM", "result": 28100, "unit": "pg/mL"}, {"measurement": "Granzyme A secretion, CD8 T cells, at 0.1 µM", "result": 29300, "unit": "pg/mL"}, {"measurement": "Granzyme A secretion, CD8 T cells, at 1 µM", "result": 31000, "unit": "pg/mL"}, {"measurement": "Granzyme A secretion, CD8 T cells, at 10 µM", "result": 31500, "unit": "pg/mL"}, {"measurement": "Granzyme A secretion, CD8 T cells, at 100 µM", "result": 29900, "unit": "pg/mL"}, {"measurement": "Granzyme B secretion, CD8 T cells, at 0 µM", "result": 77700, "unit": "pg/mL"}, {"measurement": "Granzyme B secretion, CD8 T cells, at 0.0001 µM", "result": 68900, "unit": "pg/mL"}, {"measurement": "Granzyme B secretion, CD8 T cells, at 0.001 µM", "result": 70600, "unit": "pg/mL"}, {"measurement": "Granzyme B secretion, CD8 T cells, at 0.01 µM", "result": 71000, "unit": "pg/mL"}, {"measurement": "Granzyme B secretion, CD8 T cells, at 0.1 µM", "result": 79300, "unit": "pg/mL"}, {"measurement": "Granzyme B secretion, CD8 T cells, at 1 µM", "result": 112000, "unit": "pg/mL"}, {"measurement": "Granzyme B secretion, CD8 T cells, at 10 µM", "result": 125000, "unit": "pg/mL"}, {"measurement": "Granzyme B secretion, CD8 T cells, at 100 µM", "result": 106000, "unit": "pg/mL"}, {"measurement": "IFNγ secretion, CD8 T cells, at 0 µM", "result": 122000, "unit": "pg/mL"}, {"measurement": "IFNγ secretion, CD8 T cells, at 0.0001 µM", "result": 90100, "unit": "pg/mL"}, {"measurement": "IFNγ secretion, CD8 T cells, at 0.001 µM", "result": 125000, "unit": "pg/mL"}, {"measurement": "IFNγ secretion, CD8 T cells, at 0.01 µM", "result": 127000, "unit": "pg/mL"}, {"measurement": "IFNγ secretion, CD8 T cells, at 0.1 µM", "result": 130000, "unit": "pg/mL"}, {"measurement": "IFNγ secretion, CD8 T cells, at 1 µM", "result": 147000, "unit": "pg/mL"}, {"measurement": "IFNγ secretion, CD8 T cells, at 10 µM", "result": 154000, "unit": "pg/mL"}, {"measurement": "IFNγ secretion, CD8 T cells, at 100 µM", "result": 141000, "unit": "pg/mL"}, {"measurement": "IL-1β secretion, LPS treated monocytes, at 0 µM", "result": 6240, "unit": "pg/mL"}, {"measurement": "IL-1β secretion, LPS treated monocytes, at 0 µM (LPS only)", "result": 6880, "unit": "pg/mL"}, {"measurement": "IL-1β secretion, LPS treated monocytes, at 0.0001 µM", "result": 5890, "unit": "pg/mL"}, {"measurement": "IL-1β secretion, LPS treated monocytes, at 0.001 µM", "result": 5390, "unit": "pg/mL"}, {"measurement": "IL-1β secretion, LPS treated monocytes, at 0.01 µM", "result": 6020, "unit": "pg/mL"}, {"measurement": "IL-1β secretion, LPS treated monocytes, at 0.1 µM", "result": 5240, "unit": "pg/mL"}, {"measurement": "IL-1β secretion, LPS treated monocytes, at 1 µM", "result": 5680, "unit": "pg/mL"}, {"measurement": "IL-1β secretion, LPS treated monocytes, at 10 µM", "result": 7120, "unit": "pg/mL"}, {"measurement": "IL-1β secretion, LPS treated monocytes, at 100 µM", "result": 8780, "unit": "pg/mL"}, {"measurement": "IL-9 secretion, CD8 T cells, at 0 µM", "result": 1350, "unit": "pg/mL"}, {"measurement": "IL-9 secretion, CD8 T cells, at 0.0001 µM", "result": 1010, "unit": "pg/mL"}, {"measurement": "IL-9 secretion, CD8 T cells, at 0.001 µM", "result": 1320, "unit": "pg/mL"}, {"measurement": "IL-9 secretion, CD8 T cells, at 0.01 µM", "result": 1390, "unit": "pg/mL"}, {"measurement": "IL-9 secretion, CD8 T cells, at 0.1 µM", "result": 1450, "unit": "pg/mL"}, {"measurement": "IL-9 secretion, CD8 T cells, at 1 µM", "result": 1590, "unit": "pg/mL"}, {"measurement": "IL-9 secretion, CD8 T cells, at 10 µM", "result": 2050, "unit": "pg/mL"}, {"measurement": "IL-9 secretion, CD8 T cells, at 100 µM", "result": 1960, "unit": "pg/mL"}]}]}
